The experiment concerns the target Helicobacter hepaticus Group III 2/2 hemoglobin (Hh Hb), wild type (Helicobacter hepaticus ATCC51449). Nature of the experiment: NMR 15N relaxation.

From PMC3077074 come the findings set out here.

As a reminder, the stoichiometry N is a count of units in the complex or per binding partner.

“Helicobacter hepaticus Group III 2/2 hemoglobin (Hh Hb), wild type (natural protein)”: the stoichiometry N is > 2.
